Experimental data taken from patent publication EP4814012A1 (The United Bio-Technology (Hengqin) Co., Ltd., dated 2026).
Changes are numbered by the printed parent chain.

B1: Dupilumab (antibody, V domains shown)
VH: EVQLVESGGGLEQPGGSLRLSCAGSGFTFRDYAMTWVRQAPGKGLEWVSSISGSGGNTYYADSVKGRFTISRDNSKNTLYLQMNSLRAEDTAVYYCAKDRLSITIRPRYYGLDVWGQGTTVTVSS
VL: DIVMTQSPLSLPVTPGEPASISCRSSQSLLYSIGYNYLDWYLQKSGQSPQLLIYLGSNRASGVPDRFSGSGSGTDFTLKISRVEAEDVGFYYCMQALQTPYTFGQGTKLEIKR
B2: m8 (antibody, human IgG4 S228P, kappa, V domains shown)
VH: QVQLVQSGAEVKKPGASVKVSCKASGYTFTTYYIYWVRQAPGQGLEWMGGSNPSTGGTLDNEKFKTRVTMTVDKSTSTAYMELSSLRSEDTAVYYCTRSGRYAPFTYWGQGTLVTVSS
VL: DIQMTQSPSSLSASVGDRVTITCKASQDVSTSVAWYQQKPGKAPKLLIYSASYRFTGVPSRFSGSGSGTDFTFTISSLQPEDFATYYCQHYSTTPFTFGQGTKLEIKR
notes: also called m8 molecule; anti-IL-4R antibody m8
B3: 1.34.4-z18 (antibody, human IgG4, V domains shown)
VH: B2 VH with D60F
VL: DIQMTQSPSSLSASVGDRVTITCKASQDVSTSVAWYQQKPGKAPKLLIYSASYRFTGVPSRFSGSGSGTDFTFTISSLQPEDFATYYCQQYSTTPFTFGQGTKLEIK
notes: Humanized with back-mutations; also called 1.34.4-z18 humanized antibody molecule
B4: 1.34.4 (humanized, CDR-grafted) (antibody, V domains shown)
VH: B2 VH with D60F, V72R, K74T, A79V, T97A
VL: B3 VL with F73L
B5: m27 (antibody, V domains shown)
VH: B2 VH with D60E, P104T
VL: B3 VL with Q89V, Q90H
notes: captured by anti-human Fc); also called m27 molecule
B6: m21 (antibody, V domains shown)
VH: B2 VH with D60E
VL: B3 VL with Q89V, Q90H
notes: captured by anti-human Fc); also called m21 molecule
B7: MTM (bispecific antibody, human IgG2, lambda)
heavy: QMQLVESGGGVVQPGRSLRLSCAASGFTFRTYGMHWVRQAPGKGLEWVAVIWYDGSNKHYADSVKGRFTITRDNSKNTLNLQMNSLRAEDTAVYYCARAPQWELVHEAFDIWGQGTMVTVSSASTKGPSVFPLAPCSRSTSESTAALGCLVKDYFPEPVTVSWNSGALTSGVHTFPAVLQSSGLYSLSSVVTVPSSNFGTQTYTCNVDHKPSNTKVDKTVERKCCVECPPCPAPPVAGPSVFLFPPKPKDTLMISRTPEVTCVVVDVSHEDPEVQFNWYVDGVEVHNAKTKPREEQFNSTFRVVSVLTVVHQDWLNGKEYKCKVSNKGLPAPIEKTISKTKGQPREPQVYTLPPSREEMTKNQVSLTCLVKGFYPSDIAVEWESNGQPENNYKTTPPMLDSDGSFFLYSKLTVDKSRWQQGNVFSCSVMHEALHNHYTQKSLSLSPGKGGGGSGGGGSQVQLVQSGAEVKKPGASVKVSCKASGYTFTTYYIYWVRQAPGQCLEWMGGSNPSTGGTLDNEKFKTRVTMTVDKSTSTAYMELSSLRSEDTAVYYCTRSGRYAPFTYWGCGTLVTVSSGGGGSGGGGSGGGGSGGGGSDIQMTQSPSSLSASVGDRVTITCKASQDVSTSVAWYQQKPGKAPKLLIYSASYRFTGVPSRFSGSGSGTDFTFTISSLQPEDFATYYCQHYSTTPFTFGCGTKLEIK
light: SYVLTQPPSVSVAPGQTARITCGGNNLGSKSVHWYQQKPGQAPVLVVYDDSDRPSWIPERFSGSNSGNTATLTISRGEAGDEADYYCQVWDSSSDHVVFGGGTKLTVLGQPKAAPSVTLFPPSSEELQANKATLVCLISDFYPGAVTVAWKADSSPVKAGVETTTPSKQSNNKYAASSYLSLTPEQWKSHRSYSCQVTHEGSTVEKTVAPTECS
notes: the junction should be checked against them; also called MTM bispecific antibody; MTM molecule
B8: 2.46.13-Murine (antibody, V domains shown)
VH: DVKLVESGGGLVKLGGSLKLSCAASGFTFSSYYMSWVRQTPEKRLELVAAINSNGGSTYSPDTVKGRFTISRDNAKNTLYLQMSSLKSEDTALYYCARRSLLGNHRDWYFDVWGAGTTVTVSS
VL: DIQMTQSPASLSASVGETVTITCRASENIYSYLAWYQQKQGKSPQLLVYNAKTLADGVPSRFSGSGSGTQFSLKINTLQPEDFGSYYCLHHYGTPLTFGAGTKLELK
notes: See recheck
B9: MMT (bispecific antibody, human IgG4 S228P, kappa)
heavy: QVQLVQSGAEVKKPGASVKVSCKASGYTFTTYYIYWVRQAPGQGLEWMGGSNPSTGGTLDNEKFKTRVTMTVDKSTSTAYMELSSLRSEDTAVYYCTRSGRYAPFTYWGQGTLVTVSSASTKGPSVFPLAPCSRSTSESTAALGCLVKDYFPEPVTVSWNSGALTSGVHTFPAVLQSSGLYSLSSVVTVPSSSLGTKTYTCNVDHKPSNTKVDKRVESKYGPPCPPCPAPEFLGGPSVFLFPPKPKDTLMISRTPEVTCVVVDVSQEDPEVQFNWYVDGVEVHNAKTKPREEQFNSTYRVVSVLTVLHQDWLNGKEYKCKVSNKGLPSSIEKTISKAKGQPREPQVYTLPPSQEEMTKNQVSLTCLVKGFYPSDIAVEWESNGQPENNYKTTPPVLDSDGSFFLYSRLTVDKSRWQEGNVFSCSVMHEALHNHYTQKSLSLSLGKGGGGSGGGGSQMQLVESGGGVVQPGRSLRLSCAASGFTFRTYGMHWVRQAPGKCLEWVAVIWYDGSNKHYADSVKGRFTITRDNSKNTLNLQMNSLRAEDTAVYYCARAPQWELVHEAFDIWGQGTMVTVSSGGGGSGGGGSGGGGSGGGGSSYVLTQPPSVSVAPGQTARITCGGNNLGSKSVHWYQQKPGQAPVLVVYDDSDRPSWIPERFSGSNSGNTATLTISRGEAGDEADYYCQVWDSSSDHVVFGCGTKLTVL
light: DIQMTQSPSSLSASVGDRVTITCKASQDVSTSVAWYQQKPGKAPKLLIYSASYRFTGVPSRFSGSGSGTDFTFTISSLQPEDFATYYCQHYSTTPFTFGQGTKLEIKRTVAAPSVFIFPPSDEQLKSGTASVVCLLNNFYPREAKVQWKVDNALQSGNSQESVTEQDSKDSTYSLSSTLTLSKADYEKHKVYACEVTHQGLSSPVTKSFNRGEC
notes: the junction should be checked against them; also called MMT bispecific antibody; MMT molecule
B10: 1.34.4-Murine (antibody, V domains shown)
VH: QVQLQQPGAELVKPGASMKLSCKASGYTFTTYYIYWVKQRPGQGLEWIGGSNPSTGGTLFNEKFKTKATLTVDKYSSTAYMELSSLTFEDSAVYFCTRSGRYAPFTYWGQGTLVTVSA
VL: DIVMTQSHKVLSTSVGDRVIITCKASQDVSTSVAWYQQRPGHSPKLLIYSASYRFTGVPDRFTGSGSGTDFTFTISSVQAEDLAVYNCQQYSTTPFTFGSGTKLEIK
notes: See recheck

What was measured:
[1] = target: T1, human IL-4Rα on cells (human, UniProt P24394 26-825); experiment: cell-based or functional assay
[2] = target: T1, human IL-4Rα on cells; experiment: flow cytometry on CHO-K1 cells overexpressing hIL-4Rα
[3] = target: T1, human IL-4Rα on cells; experiment: cell-based or functional assay; remark: listed apart in the source
[4] = target: T2, hIL-4Rα.ECD (human, UniProt P24394 26-232); experiment: SPR (Biacore 8K), antibody captured, hIL-4Rα.ECD analyte, 25°C
T2 construct: extracellular domain; also called hIL-4Rα protein

[5] = target: T2, hIL-4Rα.ECD; experiment: SPR, antibody captured by anti-human Fc on CM5, hIL-4Rα.ECD analyte
[6] = target: T1, human IL-4Rα on cells; experiment: cell-based or functional assay; remark: listed apart in the source
[7] = target: T1, human IL-4Rα on cells; experiment: cell-based or functional assay; remark: listed apart in the source
[8] = target: T1, human IL-4Rα on cells; experiment: cell-based or functional assay; remark: listed apart in the source
[9] = target: T2, hIL-4Rα.ECD; experiment: SPR (Biacore 8K), method same as 1.9, hIL-4Rα.ECD analyte
[10] = target: T3, hTSLP (human, UniProt Q969D9 29-159); experiment: SPR (Biacore 8K), antibody captured, hTSLP analyte, 25°C
T3 construct: also called human TSLP; thymic stromal lymphopoietin

[11] = target: T3, hTSLP; experiment: cell-based or functional assay
[12] = target: T2, hIL-4Rα.ECD; experiment: SPR (Biacore 8K), antibody captured by anti-mouse Fc, hIL-4Rα.ECD analyte, 25°C

Row | Binder | IC50(pM), hIL-4 Blocking Activity by Reporter Gene Assay [1] [pM] | EC50 [2] [nM] | IC50(pM), hIL-13 Blocking Activity, TF-1 proliferation inhibition assay [3] [pM] | Kd [4] [nM] | koff [4] [s⁻¹] | kon [4] [M⁻¹ s⁻¹] | Kd [5] [nM] | koff [5] [s⁻¹] | kon [5] [M⁻¹ s⁻¹] | IC50 (pM), hIL-13 inhibitory activity, reporter gene assay (HEK-293T.STAT6-GFP cells) [6] [pM] | IC50 (nM), Cell-based Assay Data (hIL-13), STAT6-GFP reporter gene assay [7] [nM] | also measured
1 | B1 | 201 | 0.3 | 140 | 0.0616 | 5.7e-05 | 924000 | 0.0379 | 5.4e-05 | 1.43e+06 | 41 | 0.81 | 
2 | B2 | 16.4 |  | 125 | 0.0489 | 1.39e-05 | 285000 | 0.0437 | 3.95e-05 | 903000 | 80 |  | IC50(pM), hIL-4 inhibitory activity, reporter gene assay (HEK-293T.STAT6-GFP cells) [8]: 210 pM
3 | B3 |  |  |  |  |  |  |  |  |  |  |  | Kd [9]: 0.567 nM; koff [9]: 0.000137 s⁻¹; kon [9]: 242000 M⁻¹ s⁻¹
4 | B4 |  |  |  |  |  |  |  |  |  |  |  | Kd [9]: 0.512 nM; koff [9]: 0.0001 s⁻¹; kon [9]: 196000 M⁻¹ s⁻¹
5 | B5 | 249 |  | 58.8 |  |  |  | 0.196 | 0.000112 | 568000 |  |  | 
6 | B6 | 286 |  | 66.5 |  |  |  | 0.133 | 7.76e-05 | 582000 |  |  | 
7 | B7 |  |  |  | 0.0659 | 3.48e-05 | 528000 |  |  |  | 66.5 |  | IC50(pM), hIL-4 inhibitory activity, reporter gene assay (HEK-293T.STAT6-GFP cells) [8]: 170 pM; Kd [10]: 0.00296 nM; koff [10]: 3.5e-05 s⁻¹; kon [10]: 1.18e+07 M⁻¹ s⁻¹; IC50 (nM), hTSLP inhibitory activity, reporter gene assay (HEK-293T-hTSLPR-IL7Ra-STAT5-Luciferase cells) [11]: 0.14 nM
8 | B8 |  | 0.28 |  |  |  |  |  |  |  |  | 2.23 | Kd [12]: 0.306 nM; koff [12]: 0.000118 s⁻¹; kon [12]: 385000 M⁻¹ s⁻¹
9 | B9 |  |  |  | 0.0598 | 4.35e-05 | 727000 |  |  |  | 133 |  | Kd [10]: 0.0188 nM; koff [10]: 5.88e-05 s⁻¹; kon [10]: 3.14e+06 M⁻¹ s⁻¹; IC50 (nM), hTSLP inhibitory activity, reporter gene assay (HEK-293T-hTSLPR-IL7Ra-STAT5-Luciferase cells) [11]: 0.3 nM
10 | B10 |  | 0.35 |  |  |  |  |  |  |  |  | 1.38 | Kd [12]: 0.369 nM; koff [12]: 0.000133 s⁻¹; kon [12]: 361000 M⁻¹ s⁻¹
